Assay results: patent publication US7273847B2, “Peptides with antioxidant and antimicrobial properties” (priority 2000, dated 2007)
“Also recorded” adds a separate entry of the source.

Assays:
LDL [1] = test: Western (immunoblot) analysis of protein carbonyl derivatives formed during copper mediated LDL oxidation; assay type: biochemical, human; conditions: SP-A 10 μg/ml, SP-D 1 μg/ml; alkylated SP-A 50 μg/ml, alkylated SP-D 10 μg/ml
Experimental: Proteins were analyzed for carbonyl modification of amino acid side groups that occur during lipid oxidation, as described in Levine et al., Methods Enzymol. 186, 464-478 (1990). Briefly, proteins that were included in reactions mixtures with LDL and 10 μM copper were derivatized to 2,4-dinitrophenylhydrazones (DNP-hydrazones) by reaction with 2,4-dinitrophenylhydrazine (DNPH), size fractionated by 8-16% SDS-PAGE under reducing conditions and electrophorectically transferred to nitrocellulose membranes (Oxyblot, Intergen). The membrane was sequentially incubated with a rabbit anti-DNP IgG and a horseradish peroxidase-conjugated goat anti-rabbit IgG. Blots were developed by HRP-dependent oxidation of a chemiluminescent substrate, and visualized using autoradiography.
To determine if the surfactant proteins act as sinks for reactive lipid intermediates, covalent modification of SP-A and SP-D during LDL oxidation was assessed using a western analysis technique that detects carbonyl adducts (Levine et al., Methods Enzymol. 186: 464-78 (1990)). As depicted by FIG. 4, oxidative modification of proteins that occurred during copper induced LDL oxidation were determined by Western analysis using an antibody to DNP-derivatized carbonyl moieties. Reaction mixtures contained LDL only, LDL+Cu^2+, LDL+Cu^2++albumin+10 μg/ml SP-A, LDL+Cu^2++albumin+1 μg/ml SP-D, LDL+Cu^2++albumin, LDL+Cu^2++albumin+50 μg/ml iodoacetamide treated SP-A, LDL+Cu^2++albumin+10 μg/ml iodoacetamide treated SP-D, 50 μg/ml albumin+50 μg/ml iodoacetamide treated SP-A, albumin+10 μg/ml iodoacetamide treated SP-D.

E. coli = test: Light scattering by growing bacteria in broth (O.D. 400 nm); conditions: for Blocking of attenuation of light scattering by J5 LPS vesicles: 300 μg/ml J5 LPS vesicles, 100 μg/ml collectin
LDL [2] = test: Continuous spectrophotometric monitoring of conjugated diene formation during copper-induced LDL oxidation; assay type: biochemical, human; conditions: for Effect of addition during the propagation phase of oxidation: 10 μg/ml SP-A at 95, 175 or 195 minutes, 1 μg/ml SP-D at 95, 125 or 155 minutes; for Effect on accumulation of conjugated dienes when included at zero time: SP-A 1.0-10 μg/ml, SP-D 0.01-1 μg/ml; for Concentration of complete inhibition of oxidation (conjugated diene formation): added at zero time, 10 μM copper, room temperature, absorbance 234 nm
Experimental: Stock solutions of 10 mM CuSO4 were freshly prepared daily. Reaction mixtures containing 1 mg/mi surfactant lipids or 150 μg/ml LDL were incubated with 10 μM CuSO4 for 24 hours or 4 hours, respectively, in the presence of putative oxidation inhibitors or controls at 37° C. in a shaking water bath in accordance with the method of Gelvan et al., Biochim. Biophys. Acta 1035(3):353-360 (1990). Control reactions which included LDL only, 10 μM CuSO4 or protein controls of bovine serum albumin (BSA), rat IgG, recombinant MBP, rat serum and human complement C1q were performed concurrently with experimental samples. Thiobarbituric acid-reactive substances (TBARS) were measured using a method adapted from Gelvan et al., Biochim. Biophys. Acta 1035(3):353-360 (1990). Samples and 0-10 μM […] standards were developed by addition of a solution composed of 0.375% thiobarbituric acid, 15% trichloroacetic acid, and 0.25N HCl at a volume ratio of 1:2, sample: developer. Following incubation at 95° C. for 30 minutes and centrifugation at 14,000 rpm for 15 minutes, an aliquot was read at 540 nm in a spectrophotometer. For continuous assessment of lipid oxidation, the accumulation of conjugated dienes during LDL oxidation was monitored spectrophotometrically in accordance with the method of Esterbauer et al., Free Rad. Med. Biol. 13, 341-390 (1992). Mixtures of 150 μg/ml LDL, 10 μM copper, and various amounts of surfactant proteins or control proteins were placed in quartz cuvettes and allowed to oxidize at room temperature over 335 minutes. Conjugated diene formation was assessed by measuring absorbance at 234 nm in a spectrophotometer.
The temporal relationship between the addition of SP-A or SP-D and the inhibition of LDL oxidation was determined spectrophotometrically by continuously monitoring conjugated diene accumulation associated with exposure to copper, in accordance with the method of Esterbauer et al., Free Rad. Med. Biol. 13:341-390 (1992). The assay is based on the oxidation dependent rearrangement of 1,4 pentadienyl double bonds of LDL lipids to 1,3-butadienyl double bonds, which absorb in the ultraviolet range. In the presence of 10 μM copper at room temperature, LDL particles resist oxidation for up to 100 minutes as endogenous antioxidants such as atocopherol are consumed. At that point, the rate of oxidation increases in proportion to the concentration of initiating radicals, reaching a plateau when all unsaturated fatty acids are consumed.
According to FIG. 2, conjugated diene formation during copper-induced LDL oxidation was monitored spectrophotometrically by measuring absorbance at 234 nm.

surfactant lipids = test: TBARS assay of copper-induced oxidation of surfactant lipids; assay type: biochemical; conditions: for I.C.50 (half maximal concentration) for inhibition of copper-induced oxidation of surfactant lipids / Concentration of complete inhibition / maximal protection of surfactant lipids: 10 μM Cu2+, 24 hr, TBARS; for I.C.50 (half maximal concentration) for inhibition of copper-induced oxidation of surfactant lipids: 37° C.; for Lipid peroxidation (LPO) produced by copper or iron: 24 hr incubation, 10 μM copper or iron; for TBARS Surfactant lipids Malondialdehyde: mean ± S.E.M., n=3; for IC50: assuming rat SP-A M.W.=600,000, rat SP-D M.W.=500,000, read-out: I.C.50 for inhibition of copper-induced oxidation of surfactant lipids
GBS = test: Radial diffusion growth inhibition in agar; assay type: cell-based; conditions: radial diffusion (not shown)
Experimental: (§1) A radial diffusion method was therefore used to examine the effect of the collectins and their individual structural domains on the growth of E. coli that were immobilized in agar (FIGS. 8,9). Wells were bored into plates containing agar impregnated with 2×10^6 E. coli/ml or GBS. Proteins to be tested were introduced into the wells and the plates were incubated overnight at 37° C.

E. coli K12 = test: Radial diffusion growth inhibition in agar; assay type: cell-based; conditions: radial diffusion, overnight 37° C.
Experimental: as §1

[3] = surfactant lipids, copper-induced

With “SP-A: Native surfactant protein A isolated from the alveolar wash of silica-pretreated rats” as the molecule, how does the “LDL oxidation in carbonyl Western analysis” value (LDL [1]) read?
Its value is “blocked LDL oxidation without the appearance of carbonyl-modified species”.

And the “Blocking of attenuation of light scattering by J5 LPS vesicles” value (E. coli)?
The value was “completely”.

And the “Effect of addition during the propagation phase of oxidation” value (LDL [2])?
Its value is “arrested lipid oxidation almost immediately; also recorded: conjugated diene formation was completely arrested at the point of addition”.

And the “Effect on accumulation of conjugated dienes when included at zero time” value (LDL [2])?
Its value is “blocked the accumulation of conjugated dienes in a dose-dependent manner”.

What about the “Concentration of complete inhibition of oxidation (conjugated diene formation)” value (LDL [2]) of the same molecule?
Its value is 10 µg/mL.

What about the “I.C.50 (half maximal concentration) for inhibition of copper-induced oxidation of surfactant lipids” value (surfactant lipids) of the same molecule?
Its value is 5.07 µg/mL.

And the “Concentration of complete inhibition / maximal protection of surfactant lipids” value (surfactant lipids)?
Its value is 10 µg/mL.

And the “Lipid peroxidation (LPO) produced by copper or iron” value (surfactant lipids)?
Its value is “block lipid peroxidation”.

And the “TBARS Surfactant lipids Malondialdehyde” value (surfactant lipids; Lipid + Cu2+ + 10 μg/ml protein)?
The value was 0.23 ± 0.01 µM.

And the IC50 (surfactant lipids)?
The IC50 was 8.4 nM.

What about the “Effect of alkylation with iodoacetamide on the antioxidant effects” value (surfactant lipids; [3]) of the same molecule?
Its value is “completely blocked the antioxidant effects”.

And the “Effect of presaturation with 70 uM copper or addition of 2 mM Ca2+ on antioxidant activity” value (surfactant lipids; [3])?
Its value is “neither the presaturation of SP-A with 70 uM copper, as indicated in Table 1, below, or the addition of 2 mM Ca^2+ (not shown) had a significant effect on the activity”.

And the “Concentration required to achieve the same level of inhibition of oxidation” value (surfactant lipids; surfactant lipids, level reached by 500 μg/ml rat serum)?
The value was “about 5.0 μg/ml”.

And the “Growth of GBS” value (GBS)?
Its value is “not GBS”.

And the “Growth of E. coli K12” value (E. coli K12)?
Its value is “inhibited the growth”.

B1: SP-D: Native surfactant protein D from rat alveolar wash; mouse SP-D was used interchangeably with rat SP-D (protein)
chain: AEMKSLSQRSVPNTCTLVMCSPTENGLPGRDGRDGREGPRGEKGDPGLPGPMGLSGLQGPTGPVGPKGENGSAGEPGPKGERGLSGPPGLPGIPGPAGKEGPSGKQGNIGPQGKPGPKGEAGPKGEVGAPGMQGSTGAKGSTGPKGERGAPGVQGAPGNAGAAGPAGPAGPQGAPGSRGPPGLKGDRGVPGDRGIKGESGLPDSAALRQQMEALKGKLQRLEVAFSHYQKAALFPDGRSVGDKIFRTADSEKPFEDAQEMCKQAGGQLASPRSATENAAIQQLITAHNKAAFLSMTDVGTEGKFTYPTGEPLVYSNWAPGEPNNNGGAENCVEIFTNGQWNDKACGEQRLVICEF
How did the “LDL oxidation in carbonyl Western analysis” value (LDL [1]) turn out when B1 was run?
The value was “blocked LDL oxidation without the appearance of carbonyl-modified species”.

What about the “Time dependent increase in light scattering” value (E. coli; 100 μg/ml) of the same molecule?
The value was “inhibited”.

And the “Blocking of attenuation of light scattering by J5 LPS vesicles” value (E. coli)?
The value was “partially”.

And the “Effect of addition during the propagation phase of oxidation” value (LDL [2])?
The value was “arrested lipid oxidation almost immediately; also recorded: conjugated diene formation was completely arrested at the point of addition”.

What about the “Effect on accumulation of conjugated dienes when included at zero time” value (LDL [2]) of the same molecule?
Its value is “blocked the accumulation of conjugated dienes in a dose-dependent manner”.

What about the “Concentration of complete inhibition of oxidation (conjugated diene formation)” value (LDL [2]) of the same molecule?
The value was 0.5 µg/mL.

What about the “I.C.50 (half maximal concentration) for inhibition of copper-induced oxidation of surfactant lipids” value (surfactant lipids) of the same molecule?
The value was 0.11 µg/mL.

And the “Concentration of complete inhibition / maximal protection of surfactant lipids” value (surfactant lipids)?
The value was no less than 0.5 µg/mL.

What about the “Lipid peroxidation (LPO) produced by copper or iron” value (surfactant lipids) of the same molecule?
Its value is “block lipid peroxidation”.

What about the “TBARS Surfactant lipids Malondialdehyde” value (surfactant lipids; Lipid + Cu2+ + 1 μg/ml protein) of the same molecule?
Its value is 0.27 ± 0.07 µM.

And the IC50 (surfactant lipids)?
The IC50 was 0.2 nM.

And the “I.C.50 fold lower than ApoAIV” value (surfactant lipids; surfactant lipids oxidation)?
The value was roughly 100 fold.

What about the “I.C.50 fold lower than SP-A” value (surfactant lipids; surfactant lipids oxidation) of the same molecule?
The value was “approximately 35 fold”.

What about the “Effect of alkylation with iodoacetamide on the antioxidant effects” value (surfactant lipids; [3]) of the same molecule?
The value was “completely blocked the antioxidant effects”.

And the “Growth of GBS” value (GBS)?
The value was “not GBS”.

And the “Growth of E. coli K12” value (E. coli K12)?
Its value is “inhibited the growth”.
